Test results reported in article PMC9352680, “A comprehensive thermodynamic model for RNA binding by the Saccharomyces cerevisiae Pumilio protein PUF4”.

T1: PUF4 RNA-binding domain (Saccharomyces cerevisiae, UniProt P25339 537-888)
T1 sequence: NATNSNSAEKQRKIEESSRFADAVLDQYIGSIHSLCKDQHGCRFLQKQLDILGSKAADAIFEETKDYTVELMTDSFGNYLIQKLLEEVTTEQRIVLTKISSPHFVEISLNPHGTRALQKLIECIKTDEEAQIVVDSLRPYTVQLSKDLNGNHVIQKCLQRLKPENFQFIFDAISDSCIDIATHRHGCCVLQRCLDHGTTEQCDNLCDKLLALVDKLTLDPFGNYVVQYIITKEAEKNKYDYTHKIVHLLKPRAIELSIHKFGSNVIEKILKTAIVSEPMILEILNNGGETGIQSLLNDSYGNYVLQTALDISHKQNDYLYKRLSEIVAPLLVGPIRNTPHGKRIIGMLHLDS


Target: T1, PUF4 RNA-binding domain
Experiment: Mg; RNA-MaP; 20 mM Na-HEPES pH 7.4, 30 mM KOAc, 0.75 mM MgCl2, 0.1% Tween-20, 5% glycerol, 0.1 mg/mL BSA, 2 mM DTT; 25 C; 0.0125-409.6 nM protein
Details: tags: N-His6-TEV cleaved; C-SNAP kept, Cy3B-labelled; label: tethered on chip by stalled RNA polymerase

| Binder | Kd [nM] |
| --- | --- |
| UCUCUUUUUAUAUUAUUACUUCUCUU (ssRNA) [Id_ii_S1_P5E.3_K5.2_C5.2_[C-2T]_H5.2_A5.1_F5.1_T5.2_[T11C]_[A12T]] | 414 |
| UCUCUUUCUAUAUUAUUAAAUCUCUU (ssRNA) [Id_ii_S1_P5E.3_K5.2_C5.2_[C-2T]_[T-1C]_H5.2_A5.1_F5.1_T5.2_[T11A]] | 557 |
| UCUCUUCUUGUAUUAUUAACUCUCUU (ssRNA) [Id_ii_S1_P5E.2_K5.1_C5.2_H5.1_A5.1_F5.1_T5.2_[T11A]_[A12C]] | 5.25 |
| UCUCUUCAUGUAUUAUUAGUUCUCUU (ssRNA) [Id_ii_S1_P5E.2_K5.1_C5.2_[T-1A]_H5.1_A5.1_F5.1_T5.2_[T11G]_[A12T]] | 3.5 |
| UCUCUUUGUAUAUUAUUAAAUCUCUU (ssRNA) [Id_ii_S1_P5E.3_K5.2_C5.2_[C-2T]_[T-1G]_H5.2_A5.1_F5.1_T5.2_[T11A]] | 0.467 |
| UCUCUUUAUAUAUUAUUAACUCUCUU (ssRNA) [Id_ii_S1_P5E.3_K5.2_C5.2_[C-2T]_[T-1A]_H5.2_A5.1_F5.1_T5.2_[T11A]_[A12C]] | 15.9 |
| UCUCUUUCUAUAUUAUUAAGUCUCUU (ssRNA) [Id_ii_S1_P5E.3_K5.2_C5.2_[C-2T]_[T-1C]_H5.2_A5.1_F5.1_T5.2_[T11A]_[A12G]] | 582 |
| UCUCUUGUUAUAUUAUUAGUUCUCUU (ssRNA) [Id_ii_S1_P5E.3_K5.2_C5.2_[C-2G]_H5.2_A5.1_F5.1_T5.2_[T11G]_[A12T]] | 15.3 |
| UCUCUUUCUAUAUUAUUACCUCUCUU (ssRNA) [Id_ii_S1_P5E.3_K5.2_C5.2_[C-2T]_[T-1C]_H5.2_A5.1_F5.1_T5.2_[T11C]_[A12C]] | 388 |
| UCUCUUUGUAUCCUAUCUCUU (ssRNA) [Ic_S1_P4E.1_K4.1_C4.1_H4.1_A4.1_[A6C]_[T7C]_F4.1_T4.1] | 4.4 |
| UCUCUUUCUAUAUUAUUAUCUCUCUU (ssRNA) [Id_ii_S1_P5E.3_K5.2_C5.2_[C-2T]_[T-1C]_H5.2_A5.1_F5.1_T5.2_[A12C]] | 455 |
| UCUCUUUGUAUAUUAUUAUUUCUCUU (ssRNA) [Id_ii_S1_P5E.3_K5.2_C5.2_[C-2T]_[T-1G]_H5.2_A5.1_F5.1_T5.2_[A12T]] | 0.826 |
| UCUCUUUAUAUAUUAUUAUUUCUCUU (ssRNA) [Id_ii_S1_P5E.3_K5.2_C5.2_[C-2T]_[T-1A]_H5.2_A5.1_F5.1_T5.2_[A12T]] | 17.6 |
| UCUCUUCUUGUAUUAUUAGUUCUCUU (ssRNA) [Id_ii_S1_P5E.2_K5.1_C5.2_H5.1_A5.1_F5.1_T5.2_[T11G]_[A12T]] | 3.87 |
| UCUCUUGUUAUAUUAUUAUCUCUCUU (ssRNA) [Id_ii_S1_P5E.3_K5.2_C5.2_[C-2G]_H5.2_A5.1_F5.1_T5.2_[A12C]] | 16.3 |
| UCUCUUUGUAUGAUAUCUCUU (ssRNA) [Ib_S1_P4E.1_K4.1_C4.1_H4.1_A4.1_[A6G]_[T7A]_F4.1_T4.1] | 4.57 |

| Binder | Kd [nM] |
| --- | --- |
| UCUCUUGCUAUAUUAUUAACUCUCUU (ssRNA) [Id_ii_S1_P5E.3_K5.2_C5.2_[C-2G]_[T-1C]_H5.2_A5.1_F5.1_T5.2_[T11A]_[A12C]] | 346 |
| UCUCUUCUUGUAUUAUUAAAUCUCUU (ssRNA) [Id_ii_S1_P5E.2_K5.1_C5.2_H5.1_A5.1_F5.1_T5.2_[T11A]] | 9.5 |
| UCUCUUGUUAUAUUAUUAAAUCUCUU (ssRNA) [Id_ii_S1_P5E.3_K5.2_C5.2_[C-2G]_H5.2_A5.1_F5.1_T5.2_[T11A]] | 17.7 |
| UCUCUUGCUAUAUUAUUAUUUCUCUU (ssRNA) [Id_ii_S1_P5E.3_K5.2_C5.2_[C-2G]_[T-1C]_H5.2_A5.1_F5.1_T5.2_[A12T]] | 391 |
| UCUCUUUAUAUAUUAUUAGCUCUCUU (ssRNA) [Id_ii_S1_P5E.3_K5.2_C5.2_[C-2T]_[T-1A]_H5.2_A5.1_F5.1_T5.2_[T11G]_[A12C]] | 13.7 |
| UCUCUUGUUAUAUUAUUACUUCUCUU (ssRNA) [Id_ii_S1_P5E.3_K5.2_C5.2_[C-2G]_H5.2_A5.1_F5.1_T5.2_[T11C]_[A12T]] | 13.4 |
| UCUCUUCUUGUAUUAUUAGCUCUCUU (ssRNA) [Id_ii_S1_P5E.2_K5.1_C5.2_H5.1_A5.1_F5.1_T5.2_[T11G]_[A12C]] | 2.47 |
| UCUCUUUAUAUAUUAUUAUCUCUCUU (ssRNA) [Id_ii_S1_P5E.3_K5.2_C5.2_[C-2T]_[T-1A]_H5.2_A5.1_F5.1_T5.2_[A12C]] | 21 |
| UCUCUUGCUAUAUUAUUACAUCUCUU (ssRNA) [Id_ii_S1_P5E.3_K5.2_C5.2_[C-2G]_[T-1C]_H5.2_A5.1_F5.1_T5.2_[T11C]] | 509 |
| UCUCUUUUUAUAUUAUUACGUCUCUU (ssRNA) [Id_ii_S1_P5E.3_K5.2_C5.2_[C-2T]_H5.2_A5.1_F5.1_T5.2_[T11C]_[A12G]] | 434 |
| UCUCUUGUUAUAUUAUUACGUCUCUU (ssRNA) [Id_ii_S1_P5E.3_K5.2_C5.2_[C-2G]_H5.2_A5.1_F5.1_T5.2_[T11C]_[A12G]] | 22 |
| UCUCUUUGUAUAUUAUUAACUCUCUU (ssRNA) [Id_ii_S1_P5E.3_K5.2_C5.2_[C-2T]_[T-1G]_H5.2_A5.1_F5.1_T5.2_[T11A]_[A12C]] | 0.55 |
| UCUCUUGCUAUAUUAUUAAUUCUCUU (ssRNA) [Id_ii_S1_P5E.3_K5.2_C5.2_[C-2G]_[T-1C]_H5.2_A5.1_F5.1_T5.2_[T11A]_[A12T]] | 343 |
| UCUCUUCUUGUAUUAUUAUCUCUCUU (ssRNA) [Id_ii_S1_P5E.2_K5.1_C5.2_H5.1_A5.1_F5.1_T5.2_[A12C]] | 5.07 |
| UCUCUUUCUAUAUUAUUACUUCUCUU (ssRNA) [Id_ii_S1_P5E.3_K5.2_C5.2_[C-2T]_[T-1C]_H5.2_A5.1_F5.1_T5.2_[T11C]_[A12T]] | 390 |
